# Test: soluble fraction after stress (log2 fold change); higher = more stays soluble; pooled small domains, quantitative proteomics
# Conditions: stress: 75 degC
# 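Further: 20 min heating vs room temperature control held 20 min.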
row,Sequence,soluble fraction (log2)
1,HMLDYKSALQELLQAQRRSRPRYEVISTEGPDHERVFEVAVWLDNEELGRGKGRSKREAEHQAAQAALTQL,-0.115
2,HMLDYQLQVFKDTLEANRKHRGQKIVFIHGKGEGVLRRALIHALNYQYKKFTYQDASFREYGYGATQVTI,-0.312
3,HMLEEIDYPEEQLQLLFAWSRDHVQSTPPGLPVVDDHVWHILVRGYGATDQRTEAFALLASYAGFP,0.135
4,HMLEIDPPVDEISVSRKAFYEAAGYKVNPYTHIPPRYRKEFEEHSFVVMSWPRELPEETYRKFDRYLRDV,0.0575
5,HMLEIRGFTVLLSDRGIVGIIEEIIQNPGQDLLRILSPEKREILVPLHSDLITGINKKKKTITMNLPDGL,-1.87
6,HMLELTGEEEFVIRTLTRQGDLHINALVVETDIPINRMISLLFELEMKGVVKALVGGVYHLLG,-2.45
7,HMLELTVSDKMARLMAWRNRRRVNLSDQELHRIAAAPKQSPESILKMLPGFLQDSVPEIWAELTGGRP,-1.24
8,HMLENSLDHIEGIGPKTKDTLLTYFKSVSKIKSANPSILAELIGAAKTKILLAAFEKEKTTS,-0.7
9,HMLENYEGFKQKILKLTGIDLSSYKERQMRRRIDSLIHRNNYDDYDEYFKALTQNSNLYDEFINYLTI,-0.823
10,HMLEQEDMYGYQMIETLRERSEHSFDLKAGTLYPLLHALEQKGLITARDEASAAGRPRRYYHLTDAG,-0.354
11,HMLERPLFTPEQYGRFRGKEARIRLSNPVEGRKTLTGSIVEATEERIVVFVEEEEREVTVPFQWIKSGNL,-0.544
12,HMLESVMHSRIAEIISREGTAPAHMSMQEKIRVVHKLDADGILMMKGAVAEIADQLSVSVPTIYRYLNKPQ,-2.49
13,HMLETILQIGKDGVGENLVKQVNDALEARELIKGRVLDNNLELDARTAAQILAKATRSEVVQVIGTKFV,-0.00194
14,HMLEVTQTDVKMYTTSGTPVYAAPDLNSAIVVYLERFVNVTVTGITDNGFYRVNLNGDYYIPGPYLISSV,-3.92
15,HMLEYIEPRTAVQIHGIKAKPELNGKRGMVMGYAPERMRYRVRIDVGEGTGGKESEEVYLKPENVIAVK,0.0615
16,HMLFKGDTREENVILEFLSKNGTTSSDAIIKQTGLSASEFNQAITMLELKGLALNNGGEKWSL,0.304
17,HMLGDAVLRQVLETIPEDPAVDYLELRRNTGMTEADLDRVLADLENLGVINKKRTVEQVLYWRT,-0.651
18,HMLGDAWSMLILRDAHSGFSRFDQFRKSLGIAPTMLTKRLSVLVDEGLLEKRQYSEHPPREEYVLTQAGQD,-0.0775
19,HMLGERIRTLRKEIGMSVTELARRVKTSPSHISEIERGEKMPSLNLLVKIAKELKTSIDYLTGLVG,-0.498
20,HMLGNIERALEMLQEVAATMDPVDIRLLLSMAQVESVRGNTEAAVKLIDEALVIDPGNERIEQIRLRVL,-0.482
21,HMLGRPDMSPIPEGSRNNDLHAWGFGRLANHPDNKRQIEADFFERGRISGLGDAEIRASWNSILRQLGHQ,0.0693
22,HMLGSVRTIRQVLDDGRLIVADGGGNPSVIRRSGALAHETFANGQRVIVDPSGRLALELLPD,0.171
23,HMLGVLEYYNNGQKKSERTFKGGMQIYTEWYENGQMKAEERKWIDQLGSLKFLNLLSTEWDENGNEISRME,-1.55
24,HMLGYGEQEREAQKYLEMHTAFQADPSLQKMYLPENQYALISKVMEMTGIKNVKSYLTPPNEL,-0.193
25,HMLHVRSALMSELDGIEGIGEKRKRLLFDAFITRDAIAAATLEQLMAVKGMNRPSAEAVHKHFHG,-0.985
26,HMLIELKIPSEWAGKSLHTLNLRQNYNVNVIGFRDEKSGKLNTHFDPSKKLPDEGIILVVADNRTLEKF,-0.7

row,Sequence,soluble fraction (log2)
1,HMLIIDLPDFTNKKLSELQQWADANQITLKIVEKDVSSKPYDTILEQTPAKNKYEKIVKGSTMTVTVNIK,-0.965
2,HMLINFPNKLKRLRLANNLTQQELANILETTKQAVSSYESGKSTPSLNSLIKLSEHFNISLDSLVFD,-0.038
3,HMLINIKTNSAVNVRSGPGMGFEVVNTYPSGYILQAKEMQKDGGDNVWYKVKDGWLSANYTIDI,-0.787
4,HMLINPLDILRNFNLSLYDDSRDSASNKEIDEIFESIKTNNSHIFSTLKAYRIPLPIASLIIKKIIKITLE,-0.891
5,HMLISDENMLRDLVQAVLDENPKSVSDYKSGKTKAFGFLVGQTMKAVKGQADPMLVNKILTELLN,0.236
6,HMLISYRVDALANEAGLSVDTIRYYQKLGILDPPKRTGRHSEYSPDHLERLIEIRRLADAGLTLSQISEI,-2.55
7,HMLKAKKIPVSDLEKFKGIVAEDVVSKAKALILPRGSNLSWLSNVAKKNLIAKLKAEGIEYISVYSS,-0.47
8,HMLKDGPIGAYADSVIRDIIEKMERFSKEHINVDMLKIHEKIMLIDEPIIRMALLDEFHRVSHDN,-2.47
9,HMLKEKETRALANFTNKFFGLDISEDLKPIALSELSKFKKTHKISNLEEFINSFQYDFQNEKILSLLDIFL,-1.34
10,HMLKFPIGTHVGKKKPSANLSLPNKHGVVIGHGERRNAKGAIMRFYIVETTHSSRPEEWAPGITYPL,-2.72
11,HMLKHEEIQEYIKEQINSGTWKPKAKLPSLRDMSELFSTSIGTVLTAYSALEKKHIIYSIPRSGYYVLG,-4.48
12,HMLKLEDIKKDAQVKGIVDGQIVRIVTVEPIGDHALTVYYKDHQGQFAERMLFRSDELNLELATA,-0.244
13,HMLKLSGEESQQLALRLREELARRRITRQGLADAAKISISTLEQVLAGRRTFTLATIVRLEEGLGIKLL,-2.65
14,HMLKNKSTGNINETKAILELALNHSHFKVFDNRDMTVTFKNLATQFTTMQRILVQMFFPLPAGVELIIE,0.428
15,HMLKNYATPEQRAQLDMLKDKGIIGENELMQLGKYPSQDKASEVLENHADAVKMLDSDEISNRAEAIRSHD,0.173
16,HMLKPQQTQRIYAMAARLGVLESGNKNDMLHTIVYRLTQKESIRSLNENEYKTVVSELAERLKL,-1.12
17,HMLKQLGRQEGRQEGAVDALRTVLALQIEQRFGPLDPTVQALIVAADIDALQRALSRVAVVSDLGAVFPP,-0.875
18,HMLKRLTVEFSAEMPKKMTSEQKEELASVLSEDPRPAYQNDENREYGLDYGEFSVKFKVKDGVLTVTSVTE,-0.0802
19,HMLLNLSPIETQVLRLIQQDKKVTYESIGKELTIGQTKVYKVLGHLKELNVIERIGGRTYGHWHILL,-1.33
20,HMLLNPFERLTERELEIADLYAKGYGNLEIANFLSIKQNTVSTYKKRIFEKLGIDNLVELIELIKNY,0.265
21,HMLLQTRQRHEALAALGYFKGDVAAAWGPASEEALRAAQAAFGITVDGKWGPQTEDAIQGALQV,-0.357
22,HMLLREKLESVLPFISVSALAKTYFKRSPQWFYQRLNGSIVNGKPIRFNDAELKTLAGALTDIGKKISQAA,-0.285
23,HMLLSEPSVLKFNDDNSYEIVSGFLTEYKDKIVKIERRYKKATVKITVAGEEKEIKVSFVEDTE,-1.43
24,HMLLSTHVVVAKEDVQIGTRLQPAMLQVVDWPSASPLKNPLTSIEQATDRVVNMPLVKGEPISMSKLAAKG,-0.296
25,HMLLTASNYFKETKGINFSELPEALQKGHSFVIKSTENGTNWNAYSTSQNIQRVIDAYFSKLDEYLEKNQ,-0.578
26,HMLLTHEEQIVKRGWQAPVGPFAILDSRAEAMHGDLEMLRGDREAAEQHFRRAWQIIGPIVEQ,-0.0144

row,Sequence,soluble fraction (log2)
1,HMLMKILTDALEKMSPEELKELAEATGVKNTSSITPETMVGVFQAVFRVGGFKSYQLTLIIVNAVLKA,-0.148
2,HMLMRKAEVGVESLNLRHGPGTQYKVLEILPGGKSLHYLAEPRRGWVRVTTEEGTTGWTFLKFLKPE,-2.22
3,HMLNENNHGEWSIRMSNGLVVRLGRDELNRSLRRSIMAYAGLAPNYRSSIEYIDARYLGGVALKTF,-0.159
4,HMLNKRQAEILAEVSRLKEITPSELYKLQPNVSSRTLRRDMDVLVNKGLVSQDGSTKSTKYTYL,0.193
5,HMLNMTLGDRIRSRREELRMSQEELATRLGYKSRSTIAKIESGENDLTQSKIVAFAEALSTTARWLLDY,-1.88
6,HMLNVNDVIARNVRAARERKKLTLDGAAELTGVSRSMLAQIEKGEVNPTISVVWKIANGFKVSFTSLVEPQ,-3.85
7,HMLPAGSDAILRYLSSGAVKGIGVATAARIVEKFGDETLRILEEEPGRLAEIKGITAAKAKAIGEAFAGQ,-0.356
8,HMLPELIVTTKKGVTVTVTNGVITYSATSNGKATFTVPNYGKWTVSATINGTVISKVVDVTEAKQIPVLLG,-1.07
9,HMLPERIQTIVALIGHGRAMDLVREFGGQEIKFPAQEGNDTWAALVEVIGEAATRKLAAVFGGGQAPPVYI,-1.17
10,HMLPGVPVVAGKTQSAATRILKAAGYAVSVVREEAFDGVTGTVLRTSPEAGSPLAPGSRVTLVVLQVV,-2.22
11,HMLPGWMETKFTANVSENTKNRTLEEHVLKMLNNKESAAEFIIFLHEKMMSVSGQVFQLDSR,-0.013
12,HMLPIGSSREQVISSLNKMHQDYKEEGNFIYAGYFKQGLPLVPSPRISIALQFNETAHLEKIDATLNYV,-0.343
13,HMLPKLAEEYAIMEIRGKGENLTAKLINKGGDSFMVRNGTVLQTGHRIDEITQTYVRAEINGMKDYLYFA,-0.645
14,HMLPLLAFDEKLNRLGYGGGFYDRTLASLAHKGNTITAIGIAYESQKMDKVPTGYFDRPLDGVLTPSGLIM,0.0528
15,HMLPNLWVMGPGDHLWRVAEVAMTKHLGRPVANHEIDGYWRRLVALNRESLIDPDNPDLVFAGQVIELPPF,-2.59
16,HMLPQGKGTAMWLADHLAAASVTLDAGARKLLEDTLGEDMSRLPGVLRVLEATFGSDAGRLSAEDIEPFL,0.075
17,HMLPRNKRIEIALTYIYGLGRHAATVVLKHANISPDKRTDDLDENDVRKLRDAIDANFRVEGDLRR,-1.55
18,HMLPTVSITGHIFIRSGSPLNRIFVGEKIYHVGDHIDRDWVIESIGIDTLTIRSGTLSTQLPL,-2.99
19,HMLPVFNYQVYRTHGLIYVYAKDNDSFDQIARSMGFKAKQLMKFNEVPEDFPLQAGDIVYLEKKKK,-2.35
20,HMLPVLEIGTMIRIIRQPHFGTIARVVALPEELTKVESETLVRILDAEFDDGTRVRIPRANVEVIE,-3.04
21,HMLPYGDRRRHTDNTISRIRELAAALDDSGIADRLNQDGYVTPEGKPFTYAGVRWIRYKYDISGPYERN,-1.91
22,HMLQKVELSDNEKFIFDSLQKEQKMALLRLKELVNLSNKAWDVSVKNLTKQGLVKVTKIDEELLIEI,-0.845
23,HMLQPQMKKFLNYESARNKMRPFGLSTRKEWRLFVDEGNRPADIPGDPYKKYKNKGWISWPHFLGK,-1.42
24,HMLRDTTLLHIDSIVRDGSTAMANITVRDEGTDLEFPLQLRMERGDMGWQVVRIVNYRAYLEAVQKA,-0.351

# Reference: the domain aggregation screens of Martell et al. (2025)
